Assay results from US20050112723A1, “Mammalian cell lines specifically deficient in O-linked glycosylation” (priority 2003, published 2005).
Entries after “also recorded” stand apart in the source; their conditions may differ.

How the values were obtained:
[1] = test system: ldlD cells; settings: Krieger et al. (1989); cited from earlier work
[2] = test system: wild-type CHO cells; settings: Krieger et al. (1989); cited from earlier work
[3] = test system: UDP-galNAc/UDP-glcNAc interconversion; experiment: In vitro assay for UDP-GalNAc, purified enzymes; assay type: biochemical; settings: purified enzyme expressed in Pichia pastoris, FIG. 1
Description: (§1) In Vitro Assay for UDP-GalNAc: The radioactive method for detecting conversion of UDP-GalNAc to UDP-GIcNAc was performed essentially as described above for UDP-Gal, with the following assay components per 25 μl of reaction: 8.75 μl of premix (0.04 μCi of UDP-[^14C]GalNAc (ICN), 1.89 mM cold UDP-GalNAc, 28.6 mM pyruvate, 286 mM glycine, pH 8.7, 5 μl of 20 mM NAD), and 11.25 μl of protein diluted in Johnston buffer. Appropriate amounts of protein were used in each reaction to stay within the predetermined linear range of the assay. Assays were performed as for UDP-Gal, with a TLC run-time of 10 h and quantified as described for UDP-Gal.
(§2) For analysis by HPLC, protein samples were diluted with glycine buffer (100 mM glycine, pH 8.7) to a final volume of 7.5 μl. For each reaction, 2.5 μl of 20 mM NAD+, and 2.5 il of premix (3.3 mM UDP-GalNAc, and 500 mM glycine, pH 8.7) were added, for a final reaction volume of 12.5 μl. Assay mixtures were incubated at 37° C. for 30 min before stopping by addition of 2.5 volumes of ice-cold 100% methanol. Samples were vortexed, spun and dried as for UDP-Gal HPLC assays, and resuspended in 750 μl ddH2O. The suspension was added to an 0.2 μm nylon micro-spin filter tube, and spun for approximately 2.5 min at 4000 g. An aliquot of 20 μl was then analyzed by HPLC.
HPLC Analysis of Carbohydrates: Carbohydrate detection by HPLC was based on the methods of Smits (1998) and de Koning (1992). HPLC analysis was carried out on a DX600 HPLC system (Dionex, Sunnyvale, CA) consisting of a Dionex AS50 autosampler, a Dionex GP50 gradient pump, and a Dionex ED50 electrochemical detector. Carbohydrates were separated on a CarboPac PA10 column, 250×4 mm, with a CarboPac PA10 guard column, 50×4 mm, placed before the analysis column, and a borate trap placed after. […]
The ED50 detector consisted of a gold electrode and a pH-Ag/AgCl reference electrode for signal detection by integrated amperometry. […] Carbohydrates were quantified using PeakNet software version 6.4 (Dionex) and based on integration of peak areas with comparison to standards. […]

[4] = test system: UDP-gal/UDP-glc interconversion; experiment: In vitro UDP-gal activity assays on protein extracts from transfected ldlD cells; assay type: biochemical; settings: protein extracts of stably transfected ldlD cells, CMV promoter, FIG. 3 and 5
Description: (§3) In Vitro Assays for UDP-Gal: Aliquots of each purified enzyme from Example lwere stored in 50% glycerol with 4 mM NAD+ in liquid nitrogen, while crude extracts were stored at −80° C. until needed. All crude extracts were passed through Micro biospin 30 columns (Biorad) before being assayed for enzyme activity. Assays to determine the level of GALE activity with respect to UDP-Gal were performed essentially as previously described in Thoden et al. J Biol Chem Jul 26; 277(30):27528-34 (2002). […] For radioactive assay, conversion of UDP-Gal to UDP-Glc was measured in a 12.5-μl reaction containing 2.5 μl of premix (0.05 μCi of UDP-[^14C]Gal (Amersham Biosciences), […] cold UDP-Gal, 0.2 mM glycine buffer, pH 8.7), 2.5 μl of 20 mM NAD+, and 7.5 μl of purified protein diluted in Johnston buffer (20 mM HEPES/KOH, pH 7.5, 1 mM dithiothreitol, and 0.3 mg of bovine serum albumin/ml). Appropriate amounts of protein were used in each reaction in order to stay within the predetermined linear range of the assay. Reactions were incubated at 37° C for 30 min and were stopped by boiling at 100° C. for 10 min. […] Images were visualized with a Typhoon 9200 variable mode imager and quantified using ImageQuant software (both from Amersham Biosciences). Percent conversion was determined by dividing the product signal by the total signal and multiplying by 100. […] A 15 μl aliquot was then analyzed by HPLC. […]

[5] = test system: UDP-galNAc/UDP-glcNAc interconversion; experiment: UDP-GalNAc activity of GALE alleles expressed in ldlD cells; assay type: biochemical; settings: enzyme expressed in ldlD cells, FIG. 6
Description: as §1, §2
In this experiment, ldlD cells expressing WThGALE were used as a positive control, and ldlD cells expressing backbone alone were used as a negative control.

[6] = test system: UDP-gal/UDP-glc interconversion; experiment: In vitro assay for UDP-Gal, purified enzymes; assay type: biochemical; settings: purified enzyme expressed in Pichia pastoris, FIG. 1
Description: as §3

| Molecule | ability to interconvert UDP-GalNAc and UDP-GlcNAc [3] | UDP-GalNAc activity, % of that seen in WT hGALE [3] | galactose concentration at which cells experience toxicity [1] | galactose levels with no apparent toxicity [2] | activity with regard to UDP-gal/UDP-glc interconversion [4] | activity with regard to UDP-galNAc/UDP-glcNAc interconversion [5] | UDP-Gal activity (UDP-Gal/UDP-Glc interconversion) [6] | activity with regard to UDP-galNAc/UDP-glcNAc interconversion ([5]; listed as C307Y hGALE) |
| --- | --- | --- | --- | --- | --- | --- | --- | --- |
| O=C[C@H](O)[C@@H](O)[C@@H](O)[C@H](O)CO [galactose] | – | – | greater than 75 μM | ≤ 10 mM | – | – | – | – |
| C307YhGALE: wild type hGALE except a tyrosine residue has been substituted for cysteine at position 307 (protein, Human polypeptide) MAEKVLVTGGAGYIGSHTVLELLEAGYLPVVIDNFHNAFRGGGSLPESLRRVQELTGRSVEFEEMDILDQGALQRLFKKYSFMAVIHFAGLKAVGESVQKPLDYYRVNLTGTIQLLEIMKAHGVKNLVFSSSATVYGNPQYLPLDEAHPTGGCTNPYGKSKFFIEEMIRDLCQADKTWNAVLLRYFNPTGAHASGCIGEDPQGIPNNLMPYVSQVAIGRREALNVFGNDYDTEDGTGVRDYIHVVDLAKGHIAALRKLKEQCGCRIYNLGTGTGYSVLQMVQAMEKASGKKIPYKVVARREGDVAAYYANPSLAQEELGWTAALGLDRMCEDLWRWQKQNPSGFGTQA | – | 2.30% | – | – | active | reduced to levels close to those seen in ldld cells expressing backbone alone; also recorded: reduced to levels close to those seen in IdiD cells expressing backbone alone | maintains wildtype levels | not significantly active |

The next lines start with results.

| ability to interconvert UDP-GalNAc and UDP-GlcNAc [3] | UDP-GalNAc activity, % of that seen in WT hGALE [3] | Molecule | galactose concentration at which cells experience toxicity [1] | galactose levels with no apparent toxicity [2] | activity with regard to UDP-gal/UDP-glc interconversion [4] | activity with regard to UDP-galNAc/UDP-glcNAc interconversion [5] | UDP-Gal activity (UDP-Gal/UDP-Glc interconversion) [6] | activity with regard to UDP-galNAc/UDP-glcNAc interconversion ([5]; listed as C307Y hGALE) |
| --- | --- | --- | --- | --- | --- | --- | --- | --- |
| no ability | – | WTeGALE: wild-type E. coli GALE (UDP-galactose 4-epimerase) (protein, Eschesichia Coli) MRVLVTGGSGYIGSHTCVQLLQNGHDVIILDNLCNSKRSVLPVIERLGGKHPTFVEGDIRNEALMTEILHDHAIDTVIHFAGLKAVGESVQKPLEYYDNNVNGTLRLISAMRAANVKNFIFSSSATVYGDQPKIPYVESFPTGTPQSPYGKSKLMVEQILTDLQKAQPDWSIALLRYFNPVGAHPSGDMGEDPQGIPNNLMPYIAQVAVGRRDSLAIFGNDYPTEDGTGVRDYIHVMDLADGHVVAMEKLANKPGVHIYNLGAGVGNSVLDVVNAFSKACGKPVNYHFAPRREGDLPAYWADASKADRELNWRVTRTLDEMAQDTWHWQSRHPQGYPD | – | – | active | not significantly active | – | – |
| well | – | WThGALE: wild type human GALE (UDP-galactose 4-epimerase) (protein, UniProt Q14376 1-348, looked up) UDP-glucose 4-epimerase: MAEKVLVTGGAGYIGSHTVLELLEAGYLPVVIDNFHNAFRGGGSLPESLRRVQELTGRSVEFEEMDILDQGALQRLFKKYSFMAVIHFAGLKAVGESVQKPLDYYRVNLTGTIQLLEIMKAHGVKNLVFSSSATVYGNPQYLPLDEAHPTGGCTNPYGKSKFFIEEMIRDLCQADKTWNAVLLRYFNPTGAHASGCIGEDPQGIPNNLMPYVSQVAIGRREALNVFGNDYDTEDGTGVRDYIHVVDLAKGHIAALRKLKEQCGCRIYNLGTGTGYSVLQMVQAMEKASGKKIPYKVVARREGDVAACYANPSLAQEELGWTAALGLDRMCEDLWRWQKQNPSGFGTQA | – | – | – | very active | well | – |
